Laboratory results published in PMC6555819, “Comprehensive study of nuclear receptor DNA binding provides a revised framework for understanding receptor specificity”.

biological target: RARg:RXRa (Homo sapiens, UniProt P13631;P19793 full;full); assay: no ligand; PBM; 270 nM : 90 nM RXRa; PBS pH 7.4, 2% milk, 0.02% Triton X-100, 1 mM DTT, BSA, 0.4 mg/ml salmon testes DNA; conditions: tags: His kept;His cleaved; copies: 1;1; label: surface-attached array probe
Procedure, shortened: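 Random background probes are the reference for binding z-scores. These scores derive from regression-normalized fluorescence on custom Agilent 4×180K protein-binding microarrays incubated 1 h with ligand-free nuclear receptor dimers. Binding was detected with antibodies against each partner (one per run).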

RARg:RXRa, sequence (P13631 whole entry, chain 1 of 2): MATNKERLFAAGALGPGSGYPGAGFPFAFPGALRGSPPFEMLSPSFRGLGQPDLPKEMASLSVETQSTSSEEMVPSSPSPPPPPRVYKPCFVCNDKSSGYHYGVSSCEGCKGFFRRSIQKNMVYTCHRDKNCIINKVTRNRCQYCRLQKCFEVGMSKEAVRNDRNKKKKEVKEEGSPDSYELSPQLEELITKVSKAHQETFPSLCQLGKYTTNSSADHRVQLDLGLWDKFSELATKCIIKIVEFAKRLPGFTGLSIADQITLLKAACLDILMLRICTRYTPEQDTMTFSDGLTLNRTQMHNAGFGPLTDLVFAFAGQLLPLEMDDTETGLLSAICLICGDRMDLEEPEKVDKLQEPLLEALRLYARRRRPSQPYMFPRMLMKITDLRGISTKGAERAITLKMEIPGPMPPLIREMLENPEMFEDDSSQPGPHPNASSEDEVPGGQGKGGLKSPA
RARg:RXRa, sequence (P19793 whole entry, chain 2 of 2): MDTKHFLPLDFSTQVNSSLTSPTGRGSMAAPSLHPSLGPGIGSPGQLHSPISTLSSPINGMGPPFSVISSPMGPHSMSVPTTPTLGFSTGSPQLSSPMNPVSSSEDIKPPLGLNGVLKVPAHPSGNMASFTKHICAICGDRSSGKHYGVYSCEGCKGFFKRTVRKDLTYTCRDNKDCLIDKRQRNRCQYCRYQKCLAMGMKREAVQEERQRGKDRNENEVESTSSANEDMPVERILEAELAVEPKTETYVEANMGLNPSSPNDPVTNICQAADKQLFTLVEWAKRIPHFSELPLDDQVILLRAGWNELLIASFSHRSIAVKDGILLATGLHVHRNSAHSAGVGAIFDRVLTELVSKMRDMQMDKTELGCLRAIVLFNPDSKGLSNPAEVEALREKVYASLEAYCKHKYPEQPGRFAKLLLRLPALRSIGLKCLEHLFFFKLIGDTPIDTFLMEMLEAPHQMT

| Binder | binding signal |
| --- | --- |
| NRC3_wobSeed82_DR3_C16G_o1 (dsDNA) DNA 1: GCATCGAAAGGTCGAGGAGGTGAGTATACACCGTTTGCGATTGACAGCGTAGAATGAAGG DNA 2: CCTTCATTCTACGCTGTCAATCGCAAACGGTGTATACTCACCTCCTCGACCTTTCGATGC | 4.27 PBM z-score against 500 random probes |
| NRC3_wobSeed82_DR3_T4A_o1 (dsDNA) DNA 1: GCAACGAAAGGTCGACGAGGTGAGTATACACCGTTTGCGATTGACAGCGTAGAATGAAGG DNA 2: CCTTCATTCTACGCTGTCAATCGCAAACGGTGTATACTCACCTCGTCGACCTTTCGTTGC | 4.09 PBM z-score against 500 random probes |
| NRC3_wobSeed82_DR3_T21A_o1 (dsDNA) DNA 1: GCATCGAAAGGTCGACGAGGAGAGTATACACCGTTTGCGATTGACAGCGTAGAATGAAGG DNA 2: CCTTCATTCTACGCTGTCAATCGCAAACGGTGTATACTCTCCTCGTCGACCTTTCGATGC | 4.02 PBM z-score against 500 random probes |
| NRC3_wobSeed63_DR2_G25T_o1 (dsDNA) DNA 1: GCCGAACTAGGTCACCAGGACAGTTAAGAGGTTGGAGCGATTGACAGCGTAGAATGAAGG DNA 2: CCTTCATTCTACGCTGTCAATCGCTCCAACCTCTTAACTGTCCTGGTGACCTAGTTCGGC | 4.47 PBM z-score against 500 random probes |
| NRC3_wobSeed63_DR2_T24C_o1 (dsDNA) DNA 1: GCCGAACTAGGTCACCAGGACAGCGAAGAGGTTGGAGCGATTGACAGCGTAGAATGAAGG DNA 2: CCTTCATTCTACGCTGTCAATCGCTCCAACCTCTTCGCTGTCCTGGTGACCTAGTTCGGC | 4.29 PBM z-score against 500 random probes |
| NRC3_wobSeed135_DR5_G4C_o1 (dsDNA) DNA 1: GCCCAACTAGGTCATTGACAGGACAGTGAATAGTAAGCGATTGACAGCGTAGAATGAAGG DNA 2: CCTTCATTCTACGCTGTCAATCGCTTACTATTCACTGTCCTGTCAATGACCTAGTTGGGC | 4.34 PBM z-score against 500 random probes |
| NRC3_wobSeed134_DR5_T20A_o1 (dsDNA) DNA 1: GCGCTGCTAGGTCAACTGAAGGTCAGCTAAAGCTCGGCGATTGACAGCGTAGAATGAAGG DNA 2: CCTTCATTCTACGCTGTCAATCGCCGAGCTTTAGCTGACCTTCAGTTGACCTAGCAGCGC | 7.99 PBM z-score against 500 random probes |
| NRC3_wobSeed134_DR5_C24G_o1 (dsDNA) DNA 1: GCGCTGCTAGGTCAACTGATGGTGAGCTAAAGCTCGGCGATTGACAGCGTAGAATGAAGG DNA 2: CCTTCATTCTACGCTGTCAATCGCCGAGCTTTAGCTCACCATCAGTTGACCTAGCAGCGC | 4.58 PBM z-score against 500 random probes |
| NRC3_wobSeed134_DR5_T20G_o1 (dsDNA) DNA 1: GCGCTGCTAGGTCAACTGAGGGTCAGCTAAAGCTCGGCGATTGACAGCGTAGAATGAAGG DNA 2: CCTTCATTCTACGCTGTCAATCGCCGAGCTTTAGCTGACCCTCAGTTGACCTAGCAGCGC | 7.66 PBM z-score against 500 random probes |
| NRC3_wobSeed138_DR5_G15A_o1 (dsDNA) DNA 1: GCGATACAGGGTCAACTAGAGGCCAGAGTATGGAAAGCGATTGACAGCGTAGAATGAAGG DNA 2: CCTTCATTCTACGCTGTCAATCGCTTTCCATACTCTGGCCTCTAGTTGACCCTGTATCGC | 7.73 PBM z-score against 500 random probes |
| NRC3_wobSeed138_DR5_C23G_o1 (dsDNA) DNA 1: GCGATACAGGGTCAGCTAGAGGGCAGAGTATGGAAAGCGATTGACAGCGTAGAATGAAGG DNA 2: CCTTCATTCTACGCTGTCAATCGCTTTCCATACTCTGCCCTCTAGCTGACCCTGTATCGC | 7.69 PBM z-score against 500 random probes |
| NRC3_wobSeed109_DR4_A16G_o1 (dsDNA) DNA 1: GCCGTCCAAGGTCATGGGAGGTCAGTGAAGACAGATGCGATTGACAGCGTAGAATGAAGG DNA 2: CCTTCATTCTACGCTGTCAATCGCATCTGTCTTCACTGACCTCCCATGACCTTGGACGGC | 7.38 PBM z-score against 500 random probes |
| NRC3_wobSeed101_DR4_A24C_o1 (dsDNA) DNA 1: GCCCTTACGGGTCACTCCAGGTTCTAGCATCGGAGTGCGATTGACAGCGTAGAATGAAGG DNA 2: CCTTCATTCTACGCTGTCAATCGCACTCCGATGCTAGAACCTGGAGTGACCCGTAAGGGC | 4.14 PBM z-score against 500 random probes |
| NRC3_wobSeed2_DR0_C25T_o1 (dsDNA) DNA 1: GCCCTAGTTGGTCAAGGTCACACATGCTATAGGTACGCGATTGACAGCGTAGAATGAAGG DNA 2: CCTTCATTCTACGCTGTCAATCGCGTACCTATAGCATGTGTGACCTTGACCAACTAGGGC | 4.31 PBM z-score against 500 random probes |
| NRC3_wobSeed46_DR1_A8G_o1 (dsDNA) DNA 1: GCTTACCGAGGTGAAAGGTCGTTGATGCACGCCTTGGCGATTGACAGCGTAGAATGAAGG DNA 2: CCTTCATTCTACGCTGTCAATCGCCAAGGCGTGCATCAACGACCTTTCACCTCGGTAAGC | 4.52 PBM z-score against 500 random probes |
| NRC3_wobSeed51_DR2_A12T_o1 (dsDNA) DNA 1: GCCCTCGGAGGTCAGAAGGTCAGAGCTGTCCGCTTTGCGATTGACAGCGTAGAATGAAGG DNA 2: CCTTCATTCTACGCTGTCAATCGCAAAGCGGACAGCTCTGACCTTCTGACCTCCGAGGGC | 7.6 PBM z-score against 500 random probes |
| NRC3_wobSeed98_DR4_G7A_o1 (dsDNA) DNA 1: GCACTAATTGGTCAGCTGAGGTCACACACAATTCGGGCGATTGACAGCGTAGAATGAAGG DNA 2: CCTTCATTCTACGCTGTCAATCGCCCGAATTGTGTGTGACCTCAGCTGACCAATTAGTGC | 4.44 PBM z-score against 500 random probes |

| Binder | binding signal |
| --- | --- |
| NRC3_wobSeed50_DR2_C25A_o1 (dsDNA) DNA 1: GCCCTAGTTGGTCAGGAGGTCACAAACCGGATATGAGCGATTGACAGCGTAGAATGAAGG DNA 2: CCTTCATTCTACGCTGTCAATCGCTCATATCCGGTTTGTGACCTCCTGACCAACTAGGGC | 4.55 PBM z-score against 500 random probes |
| NRC3_wobSeed88_DR3_T25C_o1 (dsDNA) DNA 1: GCTAGCCTAGGTCATGCGGGCCAGCATAGTGTCGGCGCGATTGACAGCGTAGAATGAAGG DNA 2: CCTTCATTCTACGCTGTCAATCGCGCCGACACTATGCTGGCCCGCATGACCTAGGCTAGC | 3.97 PBM z-score against 500 random probes |
| NRC3_wobSeed88_DR3_A4G_o1 (dsDNA) DNA 1: GCTGGCCTAGGTCATGCGGGCCAGTATAGTGTCGGCGCGATTGACAGCGTAGAATGAAGG DNA 2: CCTTCATTCTACGCTGTCAATCGCGCCGACACTATACTGGCCCGCATGACCTAGGCCAGC | 3.93 PBM z-score against 500 random probes |
| NRC3_wobSeed141_DR5_A25C_o1 (dsDNA) DNA 1: GCAGTCAAAGTTCAGGACGAGGTACCGTAAAGCACGGCGATTGACAGCGTAGAATGAAGG DNA 2: CCTTCATTCTACGCTGTCAATCGCCGTGCTTTACGGTACCTCGTCCTGAACTTTGACTGC | 4.17 PBM z-score against 500 random probes |
| NRC3_wobSeed125_DR5_T24C_o1 (dsDNA) DNA 1: GCCCTTACGGGTCACTGACAGGTCATAGCATTTGGAGCGATTGACAGCGTAGAATGAAGG DNA 2: CCTTCATTCTACGCTGTCAATCGCTCCAAATGCTATGACCTGTCAGTGACCCGTAAGGGC | 7.68 PBM z-score against 500 random probes |
| NRC3_wobSeed4_DR0_T25G_o1 (dsDNA) DNA 1: GCCCTACTGGGCCAAGGTCATTGAGCAGTCAAAGCAGCGATTGACAGCGTAGAATGAAGG DNA 2: CCTTCATTCTACGCTGTCAATCGCTGCTTTGACTGCTCAATGACCTTGGCCCAGTAGGGC | 3.95 PBM z-score against 500 random probes |
| NRC3_wobSeed87_DR3_C17G_o1 (dsDNA) DNA 1: GCCGAACTAGGTCATCGAGGACAGTGAATACATTGAGCGATTGACAGCGTAGAATGAAGG DNA 2: CCTTCATTCTACGCTGTCAATCGCTCAATGTATTCACTGTCCTCGATGACCTAGTTCGGC | 4.03 PBM z-score against 500 random probes |
| NRC3_wobSeed17_DR0_T6A_o1 (dsDNA) DNA 1: GCATAAGTAGGTTAGGGTCATTCAGAAAGTAGGGAAGCGATTGACAGCGTAGAATGAAGG DNA 2: CCTTCATTCTACGCTGTCAATCGCTTCCCTACTTTCTGAATGACCCTAACCTACTTATGC | 4.22 PBM z-score against 500 random probes |
| NRC3_wobSeed34_DR1_T4G_o1 (dsDNA) DNA 1: GCAGCGAAAGGTCGAAGGTGAGTATACCCACCCGAAGCGATTGACAGCGTAGAATGAAGG DNA 2: CCTTCATTCTACGCTGTCAATCGCTTCGGGTGGGTATACTCACCTTCGACCTTTCGCTGC | 4.41 PBM z-score against 500 random probes |
| NRC3_wobSeed122_DR5_T9G_o1 (dsDNA) DNA 1: GCGCTAGTGGGTCAGTAAAAGGTCACACACCGGTCGGCGATTGACAGCGTAGAATGAAGG DNA 2: CCTTCATTCTACGCTGTCAATCGCCGACCGGTGTGTGACCTTTTACTGACCCACTAGCGC | 7.46 PBM z-score against 500 random probes |
| NRC3_wobSeed61_DR2_G15C_o1 (dsDNA) DNA 1: GCCGTCCAAGGTCACCAGGTCAGTGAAAGCGACGTGGCGATTGACAGCGTAGAATGAAGG DNA 2: CCTTCATTCTACGCTGTCAATCGCCACGTCGCTTTCACTGACCTGGTGACCTTGGACGGC | 7.32 PBM z-score against 500 random probes |
| NRC3_wobSeed133_DR5_A8G_o1 (dsDNA) DNA 1: GCCGTCCGAGGTCAATGCTAGGTCAGTGAAAGCATTGCGATTGACAGCGTAGAATGAAGG DNA 2: CCTTCATTCTACGCTGTCAATCGCAATGCTTTCACTGACCTAGCATTGACCTCGGACGGC | 8.1 PBM z-score against 500 random probes |
| NRC3_wobSeed136_DR5_C23G_o1 (dsDNA) DNA 1: GCTAGCCTAGGTCATTCAGGGGGCAGTATAGAAAGCGCGATTGACAGCGTAGAATGAAGG DNA 2: CCTTCATTCTACGCTGTCAATCGCGCTTTCTATACTGCCCCCTGAATGACCTAGGCTAGC | 7.73 PBM z-score against 500 random probes |
| NRC3_wobSeed136_DR5_T8A_o1 (dsDNA) DNA 1: GCTAGCCAAGGTCATTCAGGGGCCAGTATAGAAAGCGCGATTGACAGCGTAGAATGAAGG DNA 2: CCTTCATTCTACGCTGTCAATCGCGCTTTCTATACTGGCCCCTGAATGACCTTGGCTAGC | 7.41 PBM z-score against 500 random probes |
| NRC3_wobSeed99_DR4_A26T_o1 (dsDNA) DNA 1: GCTCTCGGAGGACACGAAAGGTCAGTGCTCGACATCGCGATTGACAGCGTAGAATGAAGG DNA 2: CCTTCATTCTACGCTGTCAATCGCGATGTCGAGCACTGACCTTTCGTGTCCTCCGAGAGC | 4.39 PBM z-score against 500 random probes |
| NRC3_wobSeed39_DR1_T23G_o1 (dsDNA) DNA 1: GCCGAACTAGGTCAAAGGACAGGGAAAGGCGACGTAGCGATTGACAGCGTAGAATGAAGG DNA 2: CCTTCATTCTACGCTGTCAATCGCTACGTCGCCTTTCCCTGTCCTTTGACCTAGTTCGGC | 4.06 PBM z-score against 500 random probes |
